Data published in PMC7804408, “Functional cooperativity between the trigger factor chaperone and the ClpXP proteolytic complex” (Nature Communications, 2021).

B1: zinc-binding domain (ZBD) of ClpX (domain or fragment, E. coli)
chain: TDKRKDGSGKLLYCSFCGKSQHEVRKLIAGPSVYICDECVDLCNDIIREEIKEVAPHRER
notes: Tag removal rests on the words 'purified by the same procedure as TFN'; Isotopically labelled in one NMR experiment; also called ClpX ZBD; ZBD dimer; source: E. coli BL21(DE3), purified (Ni Sepharose, gel filtration; same procedure as TFN; 100 μM ZnCl2 added before size exclusion)
B2: ClpX (enzyme)
chain: not shown
notes: E. coli ClpX unfoldase (N-terminal ZBD and C-terminal AAA+ domain); expressed from pProEXHTb ClpX; the SPR running buffer held EDTA and no nucleotide, and the oligomeric state in that assay was not measured; also called WT ClpX; full-length ClpX; source: E. coli BL21(DE3), purified the same way as TF (Ni-NTA; His-tag removed with TEV protease)
B3: λ phage replication protein λO (natural protein, UniProt P03688 1-333, looked up)
chain: MTNTAKILNFGRGNFAGQERNVADLDDGYARLSNMLLEAYSGADLTKRQFKVLLAILRKTYGWNKPMDRITDSQLSEITKLPVKRCNEAKLELVRMNIIKQQGGMFGPNKNISEWCIPQNEGKSPKTRDKTSLKLGDCYPSKQGDTKDTITKEKRKDYSSENSGESSDQPENDLSVVKPDAAIQSGSKWGTAEDLTAAEWMFDMVKTIAPSARKPNFAGWANDIRLMRERDGRNHRDMCVLFRWACQDNFWSGNVLSPAKLRDKWTQLEINRNKQQAGVTASKPKLDLTNTDWIYGVDLKTSPHRWLTLTVSRCVGSPTTCRNSTTKSRRYSR
notes: replication protein O of phage λ
B4: trigger factor (TF) (natural protein, E. coli, UniProt P0A850 1-432, looked up)
chain: MQVSVETTQGLGRRVTITIAADSIETAVKSELVNVAKKVRIDGFRKGKVPMNIVAQRYGASVRQDVLGDLMSRNFIDAIIKEKINPAGAPTYVPGEYKLGEDFTYSVEFEVYPEVELQGLEAIEVEKPIVEVTDADVDGMLDTLRKQQATWKEKDGAVEAEDRVTIDFTGSVDGEEFEGGKASDFVLAMGQGRMIPGFEDGIKGHKAGEEFTIDVTFPEEYHAENLKGKAAKFAINLKKVEERELPELTAEFIKRFGVEDGSVEGLRAEVRKNMERELKSAIRNRVKSQAIEGLVKANDIDVPAALIDSEIDVLRRQAAQRFGGNEKQALELPRELFEEQAKRRVVVGLLLGEVIRTNELKADEERVKGLIEEMASAYEDPKEVIEFYSKNKELMDNMRNVALEEQAVEAVLAKAKVTEKETTFNELMNQQA

Experiments:
[1] = target: B4; test: SPR; TF immobilised on a CM5 chip by amine coupling, analytes injected at 20 μL/min for 90 s; Biacore X, 22 °C; 10 mM HEPES pH 7.5, 150 mM NaCl, 3 mM EDTA, 0.005% P20; steady-state response against concentration, one-site Langmuir model; apparent Kd for ClpX; conditions: both partners purified
[2] = target: HV-ClpX (N-terminally tagged ClpX) (E. coli, UniProt P0A6H1 1-424); test: cell-based or functional assay
Sequence of HV-ClpX (N-terminally tagged ClpX) (P0A6H1 whole entry): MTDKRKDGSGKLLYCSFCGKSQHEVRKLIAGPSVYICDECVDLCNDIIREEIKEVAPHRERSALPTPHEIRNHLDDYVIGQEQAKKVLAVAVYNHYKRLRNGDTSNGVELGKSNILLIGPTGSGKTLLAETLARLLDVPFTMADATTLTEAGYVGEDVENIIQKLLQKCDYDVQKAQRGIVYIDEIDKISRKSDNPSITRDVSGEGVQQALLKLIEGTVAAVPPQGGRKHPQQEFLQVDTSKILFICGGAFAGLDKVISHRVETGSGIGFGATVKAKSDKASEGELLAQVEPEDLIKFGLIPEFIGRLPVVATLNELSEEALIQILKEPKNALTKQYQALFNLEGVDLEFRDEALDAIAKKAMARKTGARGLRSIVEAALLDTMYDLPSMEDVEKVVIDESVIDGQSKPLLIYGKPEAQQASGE

Binder	Kd [1]	clipping of HV-ClpX by bound ClpP with ATP, rate of disappearance of HV-ClpX with and without TF (Fig. 3b) [2]
B1	12.8 µM	
B2	9.3 µM	
B3	3.8 µM	
B4		> 2 fold
